Laboratory results reported in article PMC5889391, “Lipid binding promotes the open conformation and tumor-suppressive activity of neurofibromin 2” (Nature Communications, 2018).
One block for each molecule: values may come before it.

Legend:
[1] = target: T1, neurofibromin 2 (full-length, GST-tagged) (Homo sapiens, UniProt P35240, A585W/R588K); assay: microscale thermophoresis; format: binding; settings: 20 mM Tris pH 7.5, 300 mM NaCl, 0.01% Tween-20, room temperature; protein labelled with maleimide NT-647
T1 construct: gene NF2; full-length, residues 1-595, N-terminal GST tag kept (pGEX-6P-1), E. coli BL21(DE3) Rosetta2
T1 sequence (P35240 1-595 A585W/R588K): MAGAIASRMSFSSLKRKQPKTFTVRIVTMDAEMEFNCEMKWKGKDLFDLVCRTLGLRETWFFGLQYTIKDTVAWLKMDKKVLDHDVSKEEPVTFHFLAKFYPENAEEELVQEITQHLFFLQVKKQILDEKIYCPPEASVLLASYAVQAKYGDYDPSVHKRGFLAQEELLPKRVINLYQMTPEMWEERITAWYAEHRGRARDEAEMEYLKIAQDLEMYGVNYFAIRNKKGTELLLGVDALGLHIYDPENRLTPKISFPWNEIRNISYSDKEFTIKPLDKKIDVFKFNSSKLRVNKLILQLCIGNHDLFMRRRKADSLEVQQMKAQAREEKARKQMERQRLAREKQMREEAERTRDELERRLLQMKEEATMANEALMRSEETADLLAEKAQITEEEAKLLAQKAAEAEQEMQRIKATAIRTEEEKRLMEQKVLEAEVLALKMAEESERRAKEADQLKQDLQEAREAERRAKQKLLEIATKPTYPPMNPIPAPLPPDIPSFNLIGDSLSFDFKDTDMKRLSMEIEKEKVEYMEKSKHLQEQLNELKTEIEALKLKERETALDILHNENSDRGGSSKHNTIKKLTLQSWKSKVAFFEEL

[2] = target: neurofibromin 2 tail tail (Homo sapiens) (UniProt P35240); settings: cited from earlier work
[3] = target: T2, N terminally GST-tagged full-length neurofibromin 2 lipid binding deficient mutant (T59V, W60E, R309Q, R310Q) (human, UniProt P35240 1-595, T59V | W60E | R309Q | R310Q, labeled with NT-647 red dye (maleimide conjugated cysteine reactive or NHS conjugated lysine reactive)); assay: MST; unlabeled LATS1 69-100 (2 mM) titrated into 5 uM NT-647-labeled GST-neurofibromin 2; 20 mM Tris pH 7.5, 300 mM NaCl, 0.01% Tween-20; room temperature; settings: both partners purified
T2 construct: neurofibromin 2 (merlin), human, full length, residues 1-595, with four point mutations; Cloned into pGEX-6P-1; also called LBD; source: E. coli BL21(DE3) Rosetta2, purified (GST column); not shown: GST, N-terminal, kept
T2 sequence (looked up): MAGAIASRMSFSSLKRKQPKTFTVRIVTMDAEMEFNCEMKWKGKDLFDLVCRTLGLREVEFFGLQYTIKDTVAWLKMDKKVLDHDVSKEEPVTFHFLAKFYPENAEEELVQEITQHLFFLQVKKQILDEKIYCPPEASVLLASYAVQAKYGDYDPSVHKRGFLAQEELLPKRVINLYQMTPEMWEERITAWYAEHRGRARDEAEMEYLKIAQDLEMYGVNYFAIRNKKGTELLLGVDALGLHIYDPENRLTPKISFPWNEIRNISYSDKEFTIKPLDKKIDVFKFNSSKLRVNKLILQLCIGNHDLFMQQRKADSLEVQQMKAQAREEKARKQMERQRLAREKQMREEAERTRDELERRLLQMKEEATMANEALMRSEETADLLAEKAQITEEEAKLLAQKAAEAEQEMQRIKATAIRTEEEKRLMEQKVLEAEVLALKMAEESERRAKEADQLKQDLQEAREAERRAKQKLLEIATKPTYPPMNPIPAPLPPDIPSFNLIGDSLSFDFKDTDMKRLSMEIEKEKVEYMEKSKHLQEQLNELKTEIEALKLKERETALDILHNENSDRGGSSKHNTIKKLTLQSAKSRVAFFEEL

[4] = target: T3, N terminally GST-tagged full-length neurofibromin 2, wild type (human, UniProt P35240 1-595, labeled with NT-647 red dye (maleimide conjugated cysteine reactive or NHS conjugated lysine reactive)); assay: as above; settings: both partners purified
T3 construct: neurofibromin 2 (merlin), human, full length, residues 1-595; also called NF2; merlin; source: E. coli BL21(DE3) Rosetta2, purified (GST column); not shown: GST, N-terminal, kept
T3 sequence (looked up): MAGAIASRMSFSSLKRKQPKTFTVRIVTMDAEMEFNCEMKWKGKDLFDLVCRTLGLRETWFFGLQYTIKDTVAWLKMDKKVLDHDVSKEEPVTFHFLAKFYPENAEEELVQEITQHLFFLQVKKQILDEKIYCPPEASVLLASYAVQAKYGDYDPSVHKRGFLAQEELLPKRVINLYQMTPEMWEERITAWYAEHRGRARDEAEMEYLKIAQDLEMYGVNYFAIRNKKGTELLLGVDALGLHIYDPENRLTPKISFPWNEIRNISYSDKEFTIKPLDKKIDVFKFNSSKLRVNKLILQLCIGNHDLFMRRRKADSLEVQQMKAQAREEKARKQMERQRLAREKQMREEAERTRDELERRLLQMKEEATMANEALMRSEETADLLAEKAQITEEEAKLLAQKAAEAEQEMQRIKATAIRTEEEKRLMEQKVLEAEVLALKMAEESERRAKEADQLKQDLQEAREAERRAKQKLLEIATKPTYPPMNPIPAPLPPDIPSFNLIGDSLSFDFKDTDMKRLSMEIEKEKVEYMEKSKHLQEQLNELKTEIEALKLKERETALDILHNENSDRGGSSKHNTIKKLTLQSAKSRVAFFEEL

[5] = target: T3, N terminally GST-tagged full-length …; assay: MST; as a1, but LATS1 69-100 titrated into the neurofibromin 2/PIP2 complex (in the presence of PIP2); settings: both partners purified

Molecule: CCCCCCCC(=O)OC[C@H](COP(=O)(O)O[C@@H]1[C@H](O)[C@H](O)[C@@H](OP(=O)(O)O)[C@H](OP(=O)(O)O)[C@H]1O)OC(=O)CCCCCCC [PIP2diC8]
microscale thermophoresis [1]: No binding was observed for the artificially closed A585W-R588K (AR) mutants to h PIP2

Molecule: neurofibromin 2 head head (from UniProt P35240)
Kd [2]: 3 µM

Kd [3]: 176 ± 34.5 µM | Kd [4]: 39.3 ± 4.25 µM | Kd [5]: 3.77 ± 0.72 µM
B1: LATS1 (residues 69-100) (domain or fragment, UniProt O95835 69-100, looked up)
chain: PKFGTHHKALQEIRNSLLPFANETNSSRSTSE
notes: Hippo pathway kinase LATS1, residues 69-100; it was unlabeled; also called LATS1 kinase; LAST1 residues 69-100
